Consider one molecule from patent publication US20200277361A1 (PROTHENA BIOSCIENCES, published 2020).

Assay [1] has as its target recombinant human TTR F87M/L110M (human, UniProt P02766 21-147). The experiment in a line: SPR, mAb captured on anti-mouse IgG chip, TTR F87M/L110M as analyte. (In general: Surface plasmon resonance follows binding to a sensor surface in real time, without labels.)
The target in assay [2] is T1, pH4.0-treated TTR (human, UniProt P02766 21-147). The experiment in a line: ELISA, pH4-TTR captured on anti-His coated plate. In general terms: In an ELISA, binding on a coated surface is turned into a signal by an enzyme label.
In assay [3] the target is T1, pH4.0-treated TTR. As to the kind of experiment: ELISA on pH4-treated TTR captured on an anti-His coated plate, anti-mouse HRP detection, OD450.
The target of assay [4] is T1, pH4.0-treated TTR. As to the kind of experiment: Sandwich ELISA (pH4-TTR).

B1: mouse antibody 5A1 (antibody, IgG1, V domains shown)
VH: EVKLVESGGGLVRPGGSLKLSCAASGFTFSNYAMSWVRQTPEKRLEWVASISSGGSTYYPDSVKGRFTISRDNARNILYLQMSSLRSEDTAMYYCVRYYYGQYFDFWGQGTALTVSS
VL: DIVMTQSHKFMSTSVGDRVSITCKASQDVSTTVAWYRQKPGQSPELLIYSASYRCTGVPDRFTGSGSGADFTFTISSVQAEDLAVYYCQQHYSTPLTFGAGTKLELK
notes: also called m5A1; mis-TTR antibody 5A1
What is called Kd is a measure of binding affinity in units of concentration. One may read the koff as the rate constant with which the complex falls apart. The kon is the second-order rate constant of association. For orientation: EC50 (read off the curve) means the concentration needed to bring the measured effect to its halfway point. Turning to B1, the Kd in assay [1] worked out at 7.68 nM; in the assay with pH4.0-treated TTR [2], 23 nM; in the assay with pH4.0-treated TTR [4], 21.3 nM. Moreover, the koff in assay [1] came to 0.000469 s⁻¹. The kon in assay [1] was found to be 61100 M⁻¹ s⁻¹. For the same molecule, in the assay with pH4.0-treated TTR [3], the “EC50 (read off the curve)” value is around 0.3 µg/mL.
